Target: T1, HLA-Cw3 on target cells
T1 construct: also called HLA-Cw*0304
Experiment: inferred from FW/92 T cell recognition of peptide-pulsed target cells with lactacystin (ELISPOT)

B1: Nonapeptide consisting of amino acids 13-21 of SEQ ID NO: 4 (peptide)
peptide: LAMPFATPM
binding result: binds

Reference: patent US20060204507A1 (LUDWIG INSTITUTE FOR CANCER RESEARCH, published 2006)
